Where no end group is shown, it is not given here.
Key:
E. coli (ATCC #10536) = format: cell-based; details: colony forming unit assay, phosphate buffer, 37°C; by extrapolation of concentration curves
Protocol: (§1) Antimicrobial Assays. The antimicrobial activities were tested using a colony forming unit assay. E. coli (ATCC #10536) was grown in LB medium at 37° C. to an OD600 of 0.5. The cells were washed 3 times in phosphate buffer (pH 7.2) and resuspended in 1 ml of the same buffer. The cells were then diluted 1:100 using two 10 fold serial dilutions. Following dilutions, 50 μl of cells were incubated with 100 μl of sample protein and 350 μl of phosphate buffer at 37° C. In place of sample protein, 100 μl of 10 mM phosphate buffered saline (pH 7.4) was used as the control sample. Following incubation, the cells were diluted 1:10 before plating 100 μl-200 μl in quadruplicates. The plates were incubated overnight at 37° C. and colony forming units were counted. The percentage of cell death was expressed using the following equation, [1-(cells surviving peptide)/(average colonies counted from PBS control)]×100%. The LC50 is defined as the lethal concentration of peptide required to kill 50 percent of the present bacteria and was determined for each Lacritin variant by extrapolation of concentration curves.
Lethal concentrations (μg/ml) of lacritin constructs required to kill 50 percent of E. coli in the antimicrobial assay. Lacritin is full length mature lacritin without signal peptide. N-XX denotes the number of amino acids removed from the N-terminal of mature lacritin and C-XX denotes the number of amino acids removed from the C-terminal of mature lacritin.

E. coli = test: Antimicrobial activity assay, colony forming units after incubation with E. coli (Example 2, FIGS. 4 and 5); format: cell-based; details: for % of the bacteria killed: four hours incubation; for CFU as % of the control / average colony forming units: four hours incubation at 37°C
Protocol: Purified recombinant lacritin variant proteins were assayed for antimicrobial activity by standard methods that involves an incubation period with actively growing bacteria and the protein of interest followed by plating on agar plates supplemented with growth media. The agar plates are incubated overnight and individual colonies are counted and expressed as Colony Forming Units (CFUs). The number of CFUs can be compared to the same bacteria incubated without protein.
E. coli at exponential growth (OD600=0.5) were washed twice in Phosphate Buffer (PB) diluted to a concentration of 1×10^6 cells/ml in PB and incubated with PB (no protein) or test proteins at 37° C. Samples were diluted and plated in triplicate on LB plates after four hours of incubation. Plates were grown at 37° C. overnight and counted. Colony counts were averaged and plotted as CFU/ml×10^3. The incubation volume was 0.5 ml at 25 mM NaCl.
C-25 was tested at a concentration of 53 μg/ml and N-71 was tested at various concentrations in μg/ml as shown in parentheses. pLAC is full length recombinant mature lacritin, and was tested at a concentration of 46 μg/ml. Bacteria incubated with buffer alone (the control) produced an average of 77×10^3 CFU/ml. Incubation with the lacritin variant C-25 produced an average of 79×10^3 or 103% of the control. […] The full-length recombinant lacritin protein (PLAC) produced an average of 38×10^3 CFU/ml or 49% of the control. The variant protein N-71 produced a concentration dependent antimicrobial activity that was less than 1% of the control at a concentration of 28 μg/ml.
The variant lacritin proteins were tested at the concentrations shown in parentheses in μg/ml. Bacteria incubated with buffer alone (the PB control) produced an average of 161×10^3 CFU/ml. Incubation with the lacritin variant N-24 produced an average of 108×10^3 or […] of the control. […] The variant protein N-35 produced an average of 25×10^3 CFU/ml or 16% of the control and the variant N-45 produced an average of 42×10^3 CFU/ml or 26% of the control. These variants are active in antimicrobial activity killing 84% and 74% respectively of the bacteria under the conditions tested. The variant N-55 produced an average of 2×10^3 CPU/ml or 0.01% of the control, the variant N-65 produced an average of 6×10^3 CFU/ml or 0.04% of the control, and the variant N-71 produced an average of 1×10^3 CFU/ml or 0.01% of the control.

Pseudomonas aeruginosa = test: Colony forming unit antimicrobial assay against pathogenic bacteria (Table 3); format: cell-based; details: 10 mM phosphate buffer, 3 hours
Protocol: as §1
(§2) Purified lacritin variant proteins at the concentrations shown were incubated with selected pathogenic bacteria in 10 mM phosphate buffer for 3 hours as described in the antimicrobial assay. The total number of colonies were counted and the percent cell death determined using [1-(colonies surviving peptide incubation)/(colony count from PBS control)]×100. N-XX denotes the number of amino acids removed from the N-terminal of mature lacritin.

Staphylococcus aureus = test: as above; format: cell-based; details: 26.3 μg/ml; 10 mM phosphate buffer, 3 hours
Protocol: as §1, §2

[1] = system: Staphylococcus epidermidis; test: as above; format: cell-based; details: 37.6 μg/ml; 10 mM phosphate buffer, 3 hours
Protocol: as §1, §2

E. coli ML-35 = test: Inner membrane permeabilization, ONPG conversion by cytoplasmic β-galactosidase (FIG. 11); format: cell-based; details: 30 μg/ml; room temperature, 18 hours
Protocol: Inner Membrane Permeabilization. To examine the affect of Lacritin constructs on the inner membrane of gram negative bacteria, an enzymatic assay was conducted using a strain of permease-deficient E. coli, designated E. coli ML-35 (ATCC #43827) which also constitutively produces cytoplasmic βeta-galactosidase. E. coli ML-35 were grown in LB medium for 20 hours at 37° C. as a saturated overnight and then diluted with LB to an absorbance OD600 of 0.5. The cells were washed 3 times in 10 mM sodium phosphate buffer-10 mM NaCl (pH 7.2) and resuspended in 1 ml of the same buffer. The cells were then diluted 1:100 in 10 mM sodium phosphate buffer using two serial 10-fold dilutions. 70 μl of phosphate buffer, 30 μl of 30 mM βeta-galactosidase substrate ONPG (o-nitrophenyl-β-D-galactopyranoside) in 20 mM sodium phosphate buffer, 100 μl of cells in 10 mM sodium phosphate buffer and 50 μl of peptide sample were added to microtiter plate wells in duplicate. The production of ONP (o-nitrophenyl) from ONPG was measured over time using a spectrophotometer set at a wavelength of 415 nm.
Mature Lacritin (pLac) and various constructs of Lacritin were incubated with permease-deficient E. coli ML-35 at room temperature for 18 hours. The conversion of ONPG (o-nitrophenyl-β-D-galactopyranoside) to ONP (o-nitrophenyl) by cytoplasmic β-galactosidase was measured by a spectrophotometer at 415 nm. […]

[2] = system: human salivary gland cells; details: recombinant lacritin produced in bacteria; cultured human salivary gland cells; cited from earlier work
[3] = topical application to the eyes of rabbits; cited from earlier work
[4] = FIG. 5, concentrations only shown in the figure
[5] = FIG. 5, concentrations only shown in the figure, PB control 161×10^3 CFU/ml

For “MKSIVEKSILLTEQALAKAGKGMHGGVPGGKQFIENGSEFAQKLLKKFSLLKPWA [Construct N-65]”, which “LC50 (lethal concentration required to kill 50 percent of E. coli)” value (E. coli (ATCC #10536)) is on record?
The value was 5.5 µg/mL.

For “MSILLTEQALAKAGKGMHGGVPGGKQFIENGSEFAQKLLKKFSLLKPWA [Construct N-71]”, which “LC50 (lethal concentration required to kill 50 percent of E. coli)” value (E. coli (ATCC #10536)) is on record?
The value was 8.0 µg/mL.

With “N-72: mature lacritin with 72 amino acids removed from the N-terminal (ILLTEQALAKAGKGMHGGVPGGKQFIENGSEFAQKLLKKFSLLKPWA; UniProt Q9GZZ8 92-138, looked up, fragment) [Construct N-72]” as the molecule, how does the “LC50 (lethal concentration required to kill 50 percent of E. coli)” value (E. coli (ATCC #10536)) read?
The value was 7.5 µg/mL.

Which “LC50 (lethal concentration required to kill 50 percent of E. coli)” value (E. coli (ATCC #10536)) does the source give for “N-73: mature lacritin with 73 amino acids removed from the N-terminal (LLTEQALAKAGKGMHGGVPGGKQFIENGSEFAQKLLKKFSLLKPWA; UniProt Q9GZZ8 93-138, looked up, fragment) [Construct N-73]” here?
The value was 8.0 µg/mL.

Which “LC50 (lethal concentration required to kill 50 percent of E. coli)” value (E. coli (ATCC #10536)) does the source give for “N-80: mature lacritin with 80 amino acids removed from the N-terminal (AKAGKGMHGGVPGGKQFIENGSEFAQKLLKKFSLLKPWA; UniProt Q9GZZ8 100-138, looked up, fragment) [Construct N-80]” here?
Its value is “Not Active”.

B1: N-45: mature lacritin with 45 amino acids removed from the N-terminal (protein, listed as Homo sapiens)
chain: MAAAVQGTAKVTSSRQELNPLKSIVEKSILLTEQALAKAGKGMHGGVPGGKQFIENGSEFAQKLLKKFSLLKPWA
With B1 as the molecule, how does the “LC50 (lethal concentration required to kill 50 percent of E. coli)” value (E. coli (ATCC #10536)) read?
Its value is 1.0 µg/mL.

And the “% of the bacteria killed” value (E. coli; [4])?
Its value is 74%.

What about the “CFU as % of the control” value (E. coli; [5]) of the same molecule?
The value was 26%.

What about the “average colony forming units” value (E. coli; [5]) of the same molecule?
The value was 42×10^3 CFU/ml.

What about the “Cell Death %” value (Pseudomonas aeruginosa; 23.0 μg/ml) of the same molecule?
Its value is 99%.

And the “Cell Death %” value (Staphylococcus aureus)?
Its value is 58%.

B2: N-35: mature lacritin with 35 amino acids removed from the N-terminal (protein, listed as Homo sapiens)
chain: METTTTAQETSAAAVQGTAKVTSSRQELNPLKSIVEKSILLTEQALAKAGKGMHGGVPGGKQFIENGSEFAQKLLKKFSLLKPWA
With B2 as the molecule, how does the “LC50 (lethal concentration required to kill 50 percent of E. coli)” value (E. coli (ATCC #10536)) read?
Its value is 1.5 µg/mL.

What about the “% of the bacteria killed” value (E. coli; [4]) of the same molecule?
Its value is 84%.

What about the “CFU as % of the control” value (E. coli; [5]) of the same molecule?
Its value is 16%.

And the “average colony forming units” value (E. coli; [5])?
Its value is 25×10^3 CFU/ml.

And the “Cell Death %” value (Pseudomonas aeruginosa; 36.8 μg/ml)?
Its value is 95%.

What about the “Cell Death %” value [1] of the same molecule?
The value was 69%.

B3: Lacritin: full length recombinant mature human lacritin without signal peptide, 119 amino acids, SEQ ID NO:27 (protein, listed as Homo sapiens)
chain: EDASSDSTGADPAQEAGTSKPNEEISGPAEPASPPETTTTAQETSAAAVQGTAKVTSSRQELNPLKSIVEKSILLTEQALAKAGKGMHGGVPGGKQFIENGSEFAQKLLKKFSLLKPWA
Which “inner membrane permeabilization (ONPG to ONP conversion, 415 nm)” value (E. coli ML-35) does the source give for B3 here?
Its value is “damage the cell membrane”.

What about the “LC50 (lethal concentration required to kill 50 percent of E. coli)” value (E. coli (ATCC #10536)) of the same molecule?
Its value is 11.0 µg/mL.

And the “average colony forming units” value (E. coli; FIG. 4, 46 μg/ml, 25 mM NaCl, buffer control 77×10^3 CFU/ml)?
The value was 38×10^3 CFU/ml.

And the “CFU as % of the control” value (E. coli; FIG. 4, 46 μg/ml, buffer control 77×10^3 CFU/ml)?
Its value is 49%.

And the cell growth [2]?
The cell growth was “promotes new cell growth”.

And the tear production [3]?
Its tear production is “increases tear production”.

Source: patent US20090312252A1, “Antimicrobial Activity in Variants of Lacritin” (priority 2006, published 2009)
